# In the supplement of paper PMC7125110:
# ± gives the standard error. Variants at the floor of the assay were thinned out.
# B1: glmS ribozyme (parent)
# chain: AUAAAAGCGCCAGAACUACAGAAAUGUAGUUGACGAGGAGGAGGUUUAUCGAAUUUUCGGCGGAUGCCUCCAAA
# Variants of: B1
# Assay: self-cleavage kobs at 10000 uM GlcN6P; higher = faster cleavage; RNA array
# Details: with glucosamine-6-phosphate
# How it was run: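 Sequenced MiSeq chips were the platform: E. coli RNA polymerase transcribed barcoded ribozyme variants on them in situ, and a hybridised Cy3 probe tracked these at 37 °C. After glucosamine-6-phosphate (40 μM to 10 mM) in HEPES/KCl/Mg(OAc)2 buffer was flowed in, tiles were imaged over ~14 h. Signals normalised to baseline and to non-cleaving reference variants were reduced to per-tile medians and fit to one- or two-exponential decays to obtain kobs. kcat and KM were derived through weighted Michaelis–Menten fits across concentrations.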
row,Variant,self-cleavage kobs at 10000 uM GlcN6P [s⁻¹]
1,C50U G60U C70A,< 1e-05
2,A6C G44A C58U,< 1e-05
3,G29A G32U C50A C68G,0.000193 ± 6e-05
4,U31G G38A A53C U65C,< 1e-05
5,G32U U47G C70G,0.00012 ± 3.4e-05
6,G43U U46G C50U C58A,< 1e-05
7,G41C C50A G62U,< 1e-05
8,A6U G9U A52U,< 1e-05
9,A15U G29C C58A,6.87e-05 ± 2.7e-05
10,U49A A53C G63U C71G,< 1e-05
11,C10G A48G G51C,< 1e-05
12,A12U C16A C58A,7.98e-05 ± 1.6e-05
13,G38U A39G A42C A48U,< 1e-05
14,A6C C8U A36C G37U,< 1e-05
15,G29A C34G C67A,< 1e-05
16,G9C A36C G43A U47A,< 1e-05
17,G37A U56C G66U,2.45e-05 ± 1.1e-05
18,A15U G32C C71U,8.58e-05 ± 2e-05
19,A12G G21U A53U U69A,0.0001 ± 2.2e-05
20,A33U C58G C67U C68A,5.11e-05 ± 1.6e-05
21,A15U C70U C71U,6.65e-05 ± 1.8e-05
22,A6U U55A C70U,0.000254 ± 6.5e-05
23,A15G C50G C68A,7.87e-05 ± 1.6e-05
24,C10A U31C G38U A48C,< 1e-05

row,Variant,self-cleavage kobs at 10000 uM GlcN6P [s⁻¹]
1,G29C U46G C67U,0.000125 ± 3.3e-05
2,A1U U2G A3G A5U G44A,4.04e-05 ± 1.7e-05
3,A52C U54G C71G,< 1e-05
4,G9C U31A,< 1e-05
5,C8U U54A U69A,0.00115 ± 0.00055
6,C16A U31C U55A,0.000194 ± 3.1e-05
7,A12C G60U C61U,< 1e-05
8,A14G U31C C58A C68U C70U,3.74e-05 ± 1.6e-05
9,A15U U55G G63U C67U,< 1e-05
10,A12U G44C A53G,0.000245 ± 4.7e-05
11,C11G U25C A53U A64U,< 1e-05
12,G13C G38A G43C C61U,< 1e-05
13,C10A A15C C16U G40A G44A C61G,< 1e-05
14,A12G G13U G40A,4.65e-05 ± 1.4e-05
15,A12G G43U G60C,< 1e-05
16,A6G A42U G59U,< 1e-05
17,C16G G35C C58U,< 1e-05
18,C10U C34U A48C,< 1e-05
19,A12C U69A C71U,4.87e-05 ± 1.6e-05
20,G44C U55C U57C G59U,< 1e-05
21,G13U G37A C50U U69A,< 1e-05
22,G13C U47G C70U,5.23e-05 ± 1.4e-05
23,U30C A53G G66A,8.63e-05 ± 2.1e-05
24,G7C G9U G41A C50U C71G,< 1e-05

row,Variant,self-cleavage kobs at 10000 uM GlcN6P [s⁻¹]
1,C50U A53U G62A,< 1e-05
2,C8G C50G C70G,0.000104 ± 2.2e-05
3,C10A G63U C71U,< 1e-05
4,A39U U49G U54G,0.00053 ± 0.00012
5,G9U U31G U54A,< 1e-05
6,U31A U49A U65C C67G,< 1e-05
7,G13U C34U G37U A53U,< 1e-05
8,U47A C50G G63U U69G,5.11e-05 ± 1.5e-05
9,U54C G59A,8.08e-05 ± 1.3e-05
10,C16G A33G C58G,< 1e-05
11,C61A U69C,< 1e-05
12,U31C G66C,8.11e-05 ± 1.3e-05
13,C11U C34G G38A,< 1e-05
14,A14G G32C G40U A42G,6.25e-05 ± 2.1e-05
15,C16U A42U A52C,< 1e-05
16,U45C U54G C70A,5.88e-05 ± 1.3e-05
17,A39C G44A G59C,< 1e-05
18,A6C U56A C68G,< 1e-05
19,A14C U65C C71U,4.99e-05 ± 2.1e-05
20,C8A A15U C70U,< 1e-05
21,A33C C68G,< 1e-05
22,A12U A15U U57G,3.38e-05 ± 1.4e-05
23,G9U A15U C34A C58G,< 1e-05
24,G41U A53G C71A,0.000206 ± 4.7e-05

row,Variant,self-cleavage kobs at 10000 uM GlcN6P [s⁻¹]
1,G9A A53G G66U,< 1e-05
2,G7C A14U C67U C68G,< 1e-05
3,A39C G43C C50A,< 1e-05
4,C11G G38U G41A C68G,< 1e-05
5,U31C A42C A64G,< 1e-05
6,A33U U57C C67G U69A,< 1e-05
7,A33G U47A C70U,< 1e-05
8,U56C U57A,8.46e-05 ± 1.3e-05
9,A15U G32U G66A,0.000174 ± 4e-05
10,C10A A36C C50U G59C,< 1e-05
11,C11A U47C U55A G59U,0.00336 ± 0.00065
12,A39C U57A C58G G63U,< 1e-05
13,C8A U56C C70G,< 1e-05
14,A12U C16A U65C,5.77e-05 ± 1.6e-05
15,A15G A39G U55A C58U,2.43e-05 ± 1.1e-05
16,G35C G51C C58A,< 1e-05
17,G9A A36U U65C,< 1e-05
18,G29A U49G U56G,3.31e-05 ± 1.3e-05
19,A6U A36U A42C U65C,< 1e-05
20,C10U A15G G35A,< 1e-05
21,G7U C8U A12G C70G,4.36e-05 ± 1.9e-05
22,G29C C50G C61G C71U,8.93e-05 ± 2.1e-05
23,C8U G37C C50A G59C A64C,< 1e-05
24,G32U U49G A64G,0.000122 ± 2.8e-05

row,Variant,self-cleavage kobs at 10000 uM GlcN6P [s⁻¹]
1,C8U G29U G32C G35C A36U C50A A52U,< 1e-05
2,U31A A33U G35U G38U,< 1e-05
3,C50U U55C,4.47e-05 ± 1.1e-05
4,A42U U46C C50A A53U,< 1e-05
5,G13U U54G C67U,0.000238 ± 4.9e-05
6,U47G G66C,0.000614 ± 0.00011
7,U30G A42G G62U,< 1e-05
8,C8G U30G G40A,< 1e-05
9,A12G U30A C34U U45G C67A,< 1e-05
10,C16G A42G C71U,0.00126 ± 0.00039
11,A12C U57G,5.46e-05 ± 1.2e-05
12,A12U A64U C67U,0.00017 ± 3e-05
13,C10G G29A U65C,< 1e-05
14,G32A U45G U49G C71G,< 1e-05
15,A12C G29A A36G,< 1e-05
16,G37C G63U,< 1e-05
17,G7U G29U G37U,< 1e-05
18,C11A A15C U54G,5.7e-05 ± 1.8e-05
19,G13U G40U C61U C68U,< 1e-05
20,A6G A12U C16U,5.43e-05 ± 2.1e-05
21,G35A A52C U55C,< 1e-05
22,A33C G44A A48U,< 1e-05
23,G9A U30A C70A,< 1e-05
24,A42C U45C C50U,< 1e-05

row,Variant,self-cleavage kobs at 10000 uM GlcN6P [s⁻¹]
1,A33C A52C U57G G63A,< 1e-05
2,A6C G32A G43U,< 1e-05
3,A14C A39U A53G,0.00135 ± 0.0004
4,C8A C11G A48U C67G C71A,< 1e-05
5,A6U U54C U55G,0.000129 ± 3.3e-05
6,G13A G37A,4.89e-05 ± 1.1e-05
7,A14C C58U,8.12e-05 ± 1.2e-05
8,G32A U55C G60U C61U,< 1e-05
9,A12C U46C G51U U54A,< 1e-05
10,A12C A64U,3.59e-05 ± 5.3e-06
11,C16G A39U U47A C50G,< 1e-05
12,A15G G66U C70A,8.77e-05 ± 1.7e-05
13,A39G G44U C71U,3.94e-05 ± 1.7e-05
14,A6U U54C C71U,0.000136 ± 2.2e-05
15,A12U G44U G51A,< 1e-05
16,G7A C16U,2.32e-05 ± 1.2e-05
17,G37C G51A U69A,< 1e-05
18,A33G A48C C50U C70G,< 1e-05
19,C16A G29A U46C,0.00011 ± 1.8e-05
20,U30A A39C,0.00136 ± 0.00028
21,C16U U46C C58G C61G,5.92e-05 ± 2.1e-05
22,A12U U54C G59U A64C,< 1e-05
23,G38C A39U U46C,< 1e-05
24,A39C G51A C58U G62U,< 1e-05

row,Variant,self-cleavage kobs at 10000 uM GlcN6P [s⁻¹]
1,A15U C50A C67U,< 1e-05
2,C8U G37C C50G A53U C67A,0.000441 ± 0.00011
3,A6U U45G C67A,4.59e-05 ± 1.8e-05
4,A36G G44U A53C,< 1e-05
5,A39U G51U C70A,< 1e-05
6,A14U A39C G66U,0.000116 ± 2.2e-05
7,C11A U47G,5.18e-05 ± 1.5e-05
8,C8U U54A U55A C67G,0.000463 ± 0.00023
9,A12U A33C U47C C67G,< 1e-05
10,A42C G51A G63U,< 1e-05
11,U47A A53U C68G,4.16e-05 ± 1.7e-05
12,G7A C11U C61U U65G C68A,0.000318 ± 0.0001
13,U31G U55G C58U,7.92e-05 ± 1.7e-05
14,G7U G13U C16U C50G U56G G66U,3.32e-05 ± 1.5e-05
15,A42U U65G U69G,0.00259 ± 0.00036
16,G29U U54A C68U,0.000427 ± 0.00018
17,C11U G32U C61G U69C,0.00014 ± 3.4e-05
18,G35U G40C G59C G62A U69C,< 1e-05
19,G9A A33C C50G A52G G59U C71A,5.24e-05 ± 2e-05
20,U47G U55C C67A,0.000309 ± 4.9e-05
21,G37A G43U U55G C68G,0.000281 ± 7.9e-05
22,G35C U47A G66U,< 1e-05
23,C8A A15U G35C,< 1e-05
